Data published in patent publication US20210246166A1 (Bayer, published 2021).
Numbered stars: 1 amine (or outer) side, 2 acyl side, 3 side chain; on linkers, the order of the positions; unused ones are H or OH. Bridge positions count the residues as written; N and C are the ends. Square brackets hold non-standard residues; d marks the D form. Primed or numbered codes have the meaning given here. Ends that are not written are not given here. * marks the point of attachment. TTDS = 1,13-diamino-4,7,10-trioxatridecan-succinamic acid, O=C(CCC(=O)[*:2])NCCCOCCOCCOCCCN[*:1]; Tranexamic″ = tranexamic acid, NC[C@H]1CC[C@@H](C(=O)*)CC1; NH(CH2CH2O)5CH2CO = O=C(COCCOCCOCCOCCOCCN[*:1])[*:2]; NH(CH2CH2O)4CH2CO = O=C(COCCOCCOCCOCCN[*:1])[*:2]; Oic = O=C(O)[C@@H]1C[C@@H]2CCCC[C@@H]2N1; PEG8 = NCCOCCOCCOCCOCCOCCOCCOCCOCCC(=O)O; Phe(4-Br) = N[C@@H](Cc1ccc(Br)cc1)C(=O)O; Pro(cis-4-F) = O=C(O)[C@@H]1C[C@H](F)CN1; PEG7 = NCCOCCOCCOCCOCCOCCOCCOCCC(=O)O; PEG6 = NCCOCCOCCOCCOCCOCCOCCC(=O)O; tBuAla = CC(C)(C)C[C@H](N)C(=O)O; PEG4 = NCCOCCOCCOCCOCCC(=O)O; Pen = CC(C)(S)[C@H](N)C(=O)O; Tranexamic = tranexamic acid; PEG3 = NCCOCCOCCOCCC(=O)O; Dap = NC[C@H](N)C(=O)O; Sar = CNCC(=O)O

T1: recombinant human MASP1 active protease (amino acids 297-699, C-terminal His Tag) (human, UniProt P48740 297-699)
T1 sequence: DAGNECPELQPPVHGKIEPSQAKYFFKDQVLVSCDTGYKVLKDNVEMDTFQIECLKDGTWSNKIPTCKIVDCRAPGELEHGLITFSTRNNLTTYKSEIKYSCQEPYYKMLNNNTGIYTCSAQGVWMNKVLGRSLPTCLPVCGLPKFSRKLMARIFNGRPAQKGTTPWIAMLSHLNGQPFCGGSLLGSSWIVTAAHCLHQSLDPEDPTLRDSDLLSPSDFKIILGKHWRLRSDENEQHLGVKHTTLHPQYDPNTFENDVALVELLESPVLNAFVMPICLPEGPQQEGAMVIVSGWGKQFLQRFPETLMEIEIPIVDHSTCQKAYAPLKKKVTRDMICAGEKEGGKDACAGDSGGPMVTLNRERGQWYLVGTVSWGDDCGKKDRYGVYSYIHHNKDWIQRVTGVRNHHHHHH


Columns and labels:
[1] = target: T1, recombinant human MASP1 active protease …; assay: cell-based or functional assay
[2] = target: recombinant human MASP2 active protease (amino acids 297-686, C-terminal His Tag) (human, UniProt O00187 297-686); assay: cell-based or functional assay
Chain of recombinant human MASP2 active protease (amino acids 297-686, C-terminal His Tag) (O00187 other isoform, or with tags, fused parts or gaps limits assumed): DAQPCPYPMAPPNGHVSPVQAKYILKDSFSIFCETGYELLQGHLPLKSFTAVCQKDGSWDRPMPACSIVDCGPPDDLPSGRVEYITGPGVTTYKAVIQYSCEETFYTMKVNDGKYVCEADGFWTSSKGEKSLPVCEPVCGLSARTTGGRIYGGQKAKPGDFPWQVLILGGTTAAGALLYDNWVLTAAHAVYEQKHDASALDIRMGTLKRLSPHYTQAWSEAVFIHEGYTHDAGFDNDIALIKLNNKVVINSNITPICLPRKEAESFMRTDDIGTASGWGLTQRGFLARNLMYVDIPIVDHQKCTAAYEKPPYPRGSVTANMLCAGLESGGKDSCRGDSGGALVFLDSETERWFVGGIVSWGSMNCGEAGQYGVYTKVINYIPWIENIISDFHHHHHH

Binder	human MASP1 IC50 [1] [nM]	human MASP2 IC50 [2] [nM]
{Tranexamic″}-ICSRS[tBuAla]PPI[Pen]IP-{PEG6-NH2} (disulfide 2-10; SMILES CC[C@H](C)[C@@H]1NC(=O)[C@@H]2CCCN2C(=O)[C@@H]2CCCN2C(=O)[C@H](CC(C)(C)C)NC(=O)[C@H](CO)NC(=O)[C@H](CCCNC(=N)N)NC(=O)[C@H](CO)NC(=O)[C@@H](NC(=O)[C@@H](NC(=O)[C@H]2CC[C@@H](CN)CC2)[C@@H](C)CC)CSSC(C)(C)[C@@H](C(=O)N[C@H](C(=O)N2CCC[C@H]2C(=O)NCCOCCOCCOCCOCCOCCOCCC(N)=O)[C@@H](C)CC)NC1=O) [Example 425: (Tranexamic)-IC+SRS-((tBu)A)-PPI-(Pen)+IP-(PEG5(22 atoms))-NH2]	7.7	13
[Sar]ICSRSLP[Oic]I[Pen]I[5‑Azaspiro(2.4)heptane‑1‑carboxylic acid]-OH (disulfide 3-11) [Example 419: ((N-Me)G)-IC+SRSLP-(Oic)-I-(Pen)+I-((5-Azaspiro[2.4]heptane-1-carboxylic acid)-OH]	5.1	100
[Sar]ICSR[Dap]LPPICIPD-OH (disulfide 3-11; N-terminus assumed; SMILES CC[C@H](C)[C@H](NC(=O)CNC)C(=O)N[C@H]1CSSC[C@@H](C(=O)N[C@H](C(=O)N2CCC[C@H]2C(=O)N[C@@H](CC(=O)O)C(=O)O)[C@@H](C)CC)NC(=O)[C@H]([C@@H](C)CC)NC(=O)[C@@H]2CCCN2C(=O)[C@@H]2CCCN2C(=O)[C@H](CC(C)C)NC(=O)[C@H](CN)NC(=O)[C@H](CCCNC(=N)N)NC(=O)[C@H](CO)NC1=O) [Example 413: ((N-Me)G)-IC+SR-(Dap)-LPPIC+IPD-OH]	78	2000
AICSRSLP[Oic]I[Pen]IPN-OH (disulfide 3-11; N-terminus assumed; SMILES CC[C@H](C)[C@H](NC(=O)[C@H](C)N)C(=O)N[C@H]1CSSC(C)(C)[C@@H](C(=O)N[C@H](C(=O)N2CCC[C@H]2C(=O)N[C@@H](CC(N)=O)C(=O)O)[C@@H](C)CC)NC(=O)[C@H]([C@@H](C)CC)NC(=O)[C@@H]2C[C@@H]3CCCC[C@@H]3N2C(=O)[C@@H]2CCCN2C(=O)[C@H](CC(C)C)NC(=O)[C@H](CO)NC(=O)[C@H](CCCNC(=N)N)NC(=O)[C@H](CO)NC1=O) [Example 418: AIC+SRSLP-(Oic)-I-(Pen)+IPN-OH]	1.8	130
{Tranexamic″}-ICSRS[tBuAla]PPI[Pen]IP-{PEG4-NH2} (disulfide 2-10; SMILES CC[C@H](C)[C@@H]1NC(=O)[C@@H]2CCCN2C(=O)[C@@H]2CCCN2C(=O)[C@H](CC(C)(C)C)NC(=O)[C@H](CO)NC(=O)[C@H](CCCNC(=N)N)NC(=O)[C@H](CO)NC(=O)[C@@H](NC(=O)[C@@H](NC(=O)[C@H]2CC[C@@H](CN)CC2)[C@@H](C)CC)CSSC(C)(C)[C@@H](C(=O)N[C@H](C(=O)N2CCC[C@H]2C(=O)NCCOCCOCCOCCOCCC(N)=O)[C@@H](C)CC)NC1=O) [Example 423: (Tranexamic)-IC+SRS-((tBu)A)-PPI-(Pen)+IP-(PEG3(16 atoms))-NH2]	5.7	12
{Tranexamic″}-ICSRS[tBuAla]PPI[Pen]IP-{PEG8-NH2} (disulfide 2-10; SMILES CC[C@H](C)[C@@H]1NC(=O)[C@@H]2CCCN2C(=O)[C@@H]2CCCN2C(=O)[C@H](CC(C)(C)C)NC(=O)[C@H](CO)NC(=O)[C@H](CCCNC(=N)N)NC(=O)[C@H](CO)NC(=O)[C@@H](NC(=O)[C@@H](NC(=O)[C@H]2CC[C@@H](CN)CC2)[C@@H](C)CC)CSSC(C)(C)[C@@H](C(=O)N[C@H](C(=O)N2CCC[C@H]2C(=O)NCCOCCOCCOCCOCCOCCOCCOCCOCCC(N)=O)[C@@H](C)CC)NC1=O) [Example 427: (Tranexamic)-IC+SRS-((tBu)A)-PPI-(Pen)+IP-(PEG8(28 atoms))-NH2]	10	15
[Sar]ICKRS[tBuAla]PPI[Pen]IP-NH2 (disulfide 3-11; N-terminus assumed; SMILES CC[C@H](C)[C@H](NC(=O)CNC)C(=O)N[C@H]1CSSC(C)(C)[C@@H](C(=O)N[C@H](C(=O)N2CCC[C@H]2C(N)=O)[C@@H](C)CC)NC(=O)[C@H]([C@@H](C)CC)NC(=O)[C@@H]2CCCN2C(=O)[C@@H]2CCCN2C(=O)[C@H](CC(C)(C)C)NC(=O)[C@H](CO)NC(=O)[C@H](CCCNC(=N)N)NC(=O)[C@H](CCCCN)NC1=O) [Example 412: ((N-Me)G)-IC+KRS-((tBu)A)-PPI-(Pen)+IP-NH2]	77	5000
{Tranexamic″}-ICSRS[tBuAla]PPI[Pen]IP-{PEG7-NH2} (disulfide 2-10; SMILES CC[C@H](C)[C@@H]1NC(=O)[C@@H]2CCCN2C(=O)[C@@H]2CCCN2C(=O)[C@H](CC(C)(C)C)NC(=O)[C@H](CO)NC(=O)[C@H](CCCNC(=N)N)NC(=O)[C@H](CO)NC(=O)[C@@H](NC(=O)[C@@H](NC(=O)[C@H]2CC[C@@H](CN)CC2)[C@@H](C)CC)CSSC(C)(C)[C@@H](C(=O)N[C@H](C(=O)N2CCC[C@H]2C(=O)NCCOCCOCCOCCOCCOCCOCCOCCC(N)=O)[C@@H](C)CC)NC1=O) [Example 426: (Tranexamic)-IC+SRS-((tBu)A)-PPI-(Pen)+IP-(PEG7(25 atoms))-NH2]	9.1	15
GICSRS[Phe(4-Br)]PPICIPD-OH (disulfide 3-11; N-terminus assumed; SMILES CC[C@H](C)[C@H](NC(=O)CN)C(=O)N[C@H]1CSSC[C@@H](C(=O)N[C@H](C(=O)N2CCC[C@H]2C(=O)N[C@@H](CC(=O)O)C(=O)O)[C@@H](C)CC)NC(=O)[C@H]([C@@H](C)CC)NC(=O)[C@@H]2CCCN2C(=O)[C@@H]2CCCN2C(=O)[C@H](Cc2ccc(Br)cc2)NC(=O)[C@H](CO)NC(=O)[C@H](CCCNC(=N)N)NC(=O)[C@H](CO)NC1=O) [Example 416: GIC+SRS-((4-Bromo)F)-PPIC+IPD-OH]	87	190
AICSRSLPPIC[(2S,3S)‑2‑((Amino)methyl)‑3‑methylpentanoic acid]PD-NH2 (disulfide 3-11) [Example 417: AIC+SRSLPPIC+((2S,3S)-2-((Amino)methyl)-3-methylpentanoic acid)-PD-NH2]	89	17000
{Tranexamic″}-ICSRS[tBuAla]PPI[Pen]IP-{PEG3-NH2} (disulfide 2-10; SMILES CC[C@H](C)[C@@H]1NC(=O)[C@@H]2CCCN2C(=O)[C@@H]2CCCN2C(=O)[C@H](CC(C)(C)C)NC(=O)[C@H](CO)NC(=O)[C@H](CCCNC(=N)N)NC(=O)[C@H](CO)NC(=O)[C@@H](NC(=O)[C@@H](NC(=O)[C@H]2CC[C@@H](CN)CC2)[C@@H](C)CC)CSSC(C)(C)[C@@H](C(=O)N[C@H](C(=O)N2CCC[C@H]2C(=O)NCCOCCOCCOCCC(N)=O)[C@@H](C)CC)NC1=O) [Example 421: (Tranexamic)-IC+SRS-((tBu)A)-PPI-(Pen)+IP-(PEG2(13 atoms))-NH2]	5	9.8
{Tranexamic″}-ICSRS[tBuAla]PPI[Pen]IP-{NH(CH2CH2O)5CH2CO-NH2} (disulfide 2-10; SMILES CC[C@H](C)[C@@H]1NC(=O)[C@@H]2CCCN2C(=O)[C@@H]2CCCN2C(=O)[C@H](CC(C)(C)C)NC(=O)[C@H](CO)NC(=O)[C@H](CCCNC(=N)N)NC(=O)[C@H](CO)NC(=O)[C@@H](NC(=O)[C@@H](NC(=O)[C@H]2CC[C@@H](CN)CC2)[C@@H](C)CC)CSSC(C)(C)[C@@H](C(=O)N[C@H](C(=O)N2CCC[C@H]2C(=O)NCCOCCOCCOCCOCCOCC(N)=O)[C@@H](C)CC)NC1=O) [Example 424: (Tranexamic)-IC+SRS-((tBu)A)-PPI-(Pen)+IP-(PEG5-CH2CO2H (18 atoms))-NH2]	6.6	11
GICSRSLP[Pro(cis-4-F)]ICIPD-OH (disulfide 3-11; N-terminus assumed; SMILES CC[C@H](C)[C@H](NC(=O)CN)C(=O)N[C@H]1CSSC[C@@H](C(=O)N[C@H](C(=O)N2CCC[C@H]2C(=O)N[C@@H](CC(=O)O)C(=O)O)[C@@H](C)CC)NC(=O)[C@H]([C@@H](C)CC)NC(=O)[C@@H]2C[C@H](F)CN2C(=O)[C@@H]2CCCN2C(=O)[C@H](CC(C)C)NC(=O)[C@H](CO)NC(=O)[C@H](CCCNC(=N)N)NC(=O)[C@H](CO)NC1=O) [Example 414: GIC+SRSLP-((cis-Fluoro)P)-IC+IPD-OH]	86	4000
[Tranexamic]ICSRS[tBuAla]PPI[Pen]IP[TTDS]-NH2 (disulfide 3-11) [Example 429: (Tranexamic)-IC+SRS-((tBu)A)-PPI-(Pen)+IP-(TTDS)-NH2]	6.9	12
{Tranexamic″}-ICSRS[tBuAla]PPI[Pen]IP-{NH(CH2CH2O)4CH2CO-NH2} (disulfide 2-10; SMILES CC[C@H](C)[C@@H]1NC(=O)[C@@H]2CCCN2C(=O)[C@@H]2CCCN2C(=O)[C@H](CC(C)(C)C)NC(=O)[C@H](CO)NC(=O)[C@H](CCCNC(=N)N)NC(=O)[C@H](CO)NC(=O)[C@@H](NC(=O)[C@@H](NC(=O)[C@H]2CC[C@@H](CN)CC2)[C@@H](C)CC)CSSC(C)(C)[C@@H](C(=O)N[C@H](C(=O)N2CCC[C@H]2C(=O)NCCOCCOCCOCCOCC(N)=O)[C@@H](C)CC)NC1=O) [Example 422: (Tranexamic)-IC+SRS-((tBu)A)-PPI-(Pen)+IP-(PEG4-CH2CO2H (15 atoms))-NH2]	8.1	12
